Results from the supplement of paper PMC9112550, “Optimization of the antimicrobial peptide Bac7 by deep mutational scanning” (BMC Biology, 2022).

These sequences were tested on Escherichia coli TOP10 (assay: shrunken log2 fold change of peptide-encoding DNA abundance (4.5 h post-induction vs induction); higher = less antimicrobial activity (less host growth inhibition)). Details: time post-induction: 4.5 h; library: site-saturation at positions 5, 18, 19, 20.
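Further: peptides expressed intracellularly from a pBAD plasmid library in pooled LB shake-flask culture, induced with 0.3% L-arabinose, DNA abundance read by NGS, three biological replicates, DESeq2 with apeglm shrinkage.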

| Sequence | shrunken log2 fold change |
| --- | --- |
| RRIRIRPPRLPRPRPRPIKNPRP | -0.546 |
| RRIRMRPPRLPRPRPRPNTDPRP | -0.196 |
| RRIRDRPPRLPRPRPRPWWHPRP | 0.133 |
| RRIRRRPPRLPRPRPRPAKYPRP | 0.0401 |
| RRIRERPPRLPRPRPRPTDRPRP | 0.0616 |
| RRIRTRPPRLPRPRPRPPCAPRP | 0.308 |
| RRIRKRPPRLPRPRPRPMYWPRP | -0.111 |
| RRIRGRPPRLPRPRPRPHQLPRP | 0.339 |
| RRIRCRPPRLPRPRPRPCRAPRP | -0.0671 |
| RRIRTRPPRLPRPRPRPPFNPRP | 0.0539 |
| RRIRERPPRLPRPRPRPTFNPRP | -0.24 |
| RRIRYRPPRLPRPRPRPMKLPRP | -0.58 |
| RRIRKRPPRLPRPRPRPWKWPRP | -0.0168 |
| RRIRLRPPRLPRPRPRPEFQPRP | -0.0134 |
| RRIRMRPPRLPRPRPRPCQAPRP | 0.0538 |
| RRIRFRPPRLPRPRPRPMFYPRP | -1.51 |
| RRIRARPPRLPRPRPRPENCPRP | 0.177 |
| RRIRRRPPRLPRPRPRPYIHPRP | -0.794 |
| RRIRFRPPRLPRPRPRPGSWPRP | 0.244 |
| RRIRGRPPRLPRPRPRPMDDPRP | 0.994 |
| RRIRVRPPRLPRPRPRPCEAPRP | 0.0719 |
| RRIRIRPPRLPRPRPRPKCRPRP | -0.452 |
| RRIRKRPPRLPRPRPRPDCSPRP | -0.0754 |
| RRIRKRPPRLPRPRPRPWNSPRP | 0.0199 |
| RRIRARPPRLPRPRPRPAQNPRP | 0.333 |

| Sequence | shrunken log2 fold change |
| --- | --- |
| RRIRFRPPRLPRPRPRPYYPPRP | -1.19 |
| RRIRCRPPRLPRPRPRPNPTPRP | 0.211 |
| RRIRWRPPRLPRPRPRPWRYPRP | -0.262 |
| RRIRDRPPRLPRPRPRPCLSPRP | 0.000319 |
| RRIRHRPPRLPRPRPRPWTAPRP | -0.0875 |
| RRIRKRPPRLPRPRPRPMTKPRP | 0.397 |
| RRIRSRPPRLPRPRPRPDQYPRP | -2.18 |
| RRIRPRPPRLPRPRPRPLRCPRP | 0.394 |
| RRIRQRPPRLPRPRPRPDNAPRP | -0.246 |
| RRIRSRPPRLPRPRPRPYRVPRP | -0.0218 |
| RRIRHRPPRLPRPRPRPYLIPRP | -0.574 |
| RRIRHRPPRLPRPRPRPAQGPRP | -0.197 |
| RRIRHRPPRLPRPRPRPDMIPRP | -0.0018 |
| RRIRYRPPRLPRPRPRPVQQPRP | -0.00101 |
| RRIRIRPPRLPRPRPRPMTMPRP | -0.01 |
| RRIRKRPPRLPRPRPRPCVSPRP | -0.376 |
| RRIRIRPPRLPRPRPRPLRFPRP | -0.21 |
| RRIRSRPPRLPRPRPRPCQMPRP | 0.0312 |
| RRIRHRPPRLPRPRPRPHMYPRP | -0.0666 |
| RRIRCRPPRLPRPRPRPSCWPRP | 0.2 |
| RRIRWRPPRLPRPRPRPSTEPRP | 0.0764 |
| RRIRLRPPRLPRPRPRPVGLPRP | 0.144 |
| RRIRMRPPRLPRPRPRPVIGPRP | -0.0424 |
| RRIRMRPPRLPRPRPRPGEVPRP | 0.884 |
| RRIRVRPPRLPRPRPRPTVLPRP | -0.0891 |

| Sequence | shrunken log2 fold change |
| --- | --- |
| RRIRNRPPRLPRPRPRPSLRPRP | -0.00371 |
| RRIRNRPPRLPRPRPRPKDWPRP | 0.0256 |
| RRIRWRPPRLPRPRPRPAGRPRP | 0.695 |
| RRIRQRPPRLPRPRPRPNMEPRP | -0.404 |
| RRIRDRPPRLPRPRPRPPAPPRP | 1.05 |
| RRIRHRPPRLPRPRPRPELRPRP | 0.0303 |
| RRIRMRPPRLPRPRPRPKCGPRP | 0.574 |
| RRIRPRPPRLPRPRPRPSWHPRP | 0.182 |
| RRIRERPPRLPRPRPRPSPHPRP | -0.229 |
| RRIRGRPPRLPRPRPRPPQAPRP | 1.58 |
| RRIRMRPPRLPRPRPRPIFQPRP | -0.115 |
| RRIRLRPPRLPRPRPRPRTSPRP | 0.288 |
| RRIRKRPPRLPRPRPRPAPNPRP | 0.631 |
| RRIRCRPPRLPRPRPRPNNHPRP | -0.731 |
| RRIRARPPRLPRPRPRPDRPPRP | 0.448 |
| RRIRYRPPRLPRPRPRPFPHPRP | -0.137 |
| RRIRRRPPRLPRPRPRPLEWPRP | 0.266 |
| RRIRPRPPRLPRPRPRPEMLPRP | 0.16 |
| RRIRCRPPRLPRPRPRPFGYPRP | -0.174 |
| RRIRRRPPRLPRPRPRPVYDPRP | -0.331 |
| RRIRCRPPRLPRPRPRPQPIPRP | -0.335 |
| RRIRCRPPRLPRPRPRPQRAPRP | -0.012 |
| RRIRLRPPRLPRPRPRPDTQPRP | 0.0809 |
| RRIRGRPPRLPRPRPRPRHVPRP | 0.218 |
| RRIRMRPPRLPRPRPRPAVIPRP | -0.1 |

| Sequence | shrunken log2 fold change |
| --- | --- |
| RRIRCRPPRLPRPRPRPEAGPRP | 0.4 |
| RRIRTRPPRLPRPRPRPKRWPRP | 0.723 |
| RRIRYRPPRLPRPRPRPNLPPRP | -0.479 |
| RRIRHRPPRLPRPRPRPEHCPRP | 0.0155 |
| RRIRPRPPRLPRPRPRPQIGPRP | 0.128 |
| RRIRVRPPRLPRPRPRPFEHPRP | -0.00133 |
| RRIRIRPPRLPRPRPRPHRLPRP | -0.122 |
| RRIRERPPRLPRPRPRPPTEPRP | 0.0778 |
| RRIRFRPPRLPRPRPRPWPFPRP | -0.455 |
| RRIRHRPPRLPRPRPRPQYNPRP | -0.655 |
| RRIRLRPPRLPRPRPRPMYTPRP | -0.119 |
| RRIRQRPPRLPRPRPRPISYPRP | 0.0146 |
| RRIRERPPRLPRPRPRPSFCPRP | -0.593 |
| RRIRQRPPRLPRPRPRPSTEPRP | -0.0926 |
| RRIRFRPPRLPRPRPRPDTGPRP | -0.356 |
| RRIRIRPPRLPRPRPRPLPNPRP | -0.217 |
| RRIRDRPPRLPRPRPRPIPTPRP | 0.00396 |
| RRIRARPPRLPRPRPRPWGSPRP | 0.115 |
| RRIRGRPPRLPRPRPRPMYCPRP | 0.0756 |
| RRIRFRPPRLPRPRPRPCNEPRP | -0.0116 |
| RRIRERPPRLPRPRPRPDFVPRP | 0.105 |
| RRIRHRPPRLPRPRPRPECNPRP | -0.0866 |
| RRIRSRPPRLPRPRPRPNPPPRP | -0.222 |
| RRIRFRPPRLPRPRPRPCMTPRP | 0.162 |
| RRIRFRPPRLPRPRPRPYYTPRP | -0.369 |

| Sequence | shrunken log2 fold change |
| --- | --- |
| RRIRNRPPRLPRPRPRPMSFPRP | -0.0524 |
| RRIRYRPPRLPRPRPRPHVYPRP | -0.748 |
| RRIRPRPPRLPRPRPRPINLPRP | -0.994 |
| RRIRHRPPRLPRPRPRPASLPRP | -0.0081 |
| RRIRWRPPRLPRPRPRPQAYPRP | 0.0869 |
| RRIRWRPPRLPRPRPRPCGIPRP | 0.0389 |
| RRIRCRPPRLPRPRPRPQERPRP | -0.028 |
| RRIRQRPPRLPRPRPRPKTMPRP | -0.0635 |
| RRIRNRPPRLPRPRPRPHWAPRP | 0.13 |
| RRIRARPPRLPRPRPRPTWVPRP | 0.225 |
| RRIRRRPPRLPRPRPRPQIVPRP | -0.13 |
| RRIRGRPPRLPRPRPRPIEPPRP | 0.491 |
| RRIRSRPPRLPRPRPRPSKIPRP | -0.378 |
| RRIRVRPPRLPRPRPRPSQGPRP | -0.371 |
| RRIRLRPPRLPRPRPRPQQPPRP | -0.208 |
| RRIRFRPPRLPRPRPRPERKPRP | 0.0154 |
| RRIRRRPPRLPRPRPRPQHIPRP | -0.338 |
| RRIRMRPPRLPRPRPRPGILPRP | 0.0644 |
| RRIRERPPRLPRPRPRPHRHPRP | -0.18 |
| RRIRRRPPRLPRPRPRPCKTPRP | -0.103 |
| RRIRFRPPRLPRPRPRPDEKPRP | -0.0935 |
| RRIRMRPPRLPRPRPRPRMEPRP | 0.0362 |
| RRIRRRPPRLPRPRPRPNTKPRP | 0.191 |
| RRIRTRPPRLPRPRPRPCVKPRP | 0.0506 |
| RRIRGRPPRLPRPRPRPTPHPRP | 0.906 |

| Sequence | shrunken log2 fold change |
| --- | --- |
| RRIRCRPPRLPRPRPRPVAGPRP | 0.0113 |
| RRIRIRPPRLPRPRPRPPDVPRP | -0.109 |
| RRIRIRPPRLPRPRPRPMLIPRP | -0.21 |
| RRIRVRPPRLPRPRPRPKEVPRP | 0.177 |
| RRIRSRPPRLPRPRPRPGTMPRP | -0.315 |
| RRIRSRPPRLPRPRPRPICCPRP | -0.0929 |
| RRIRLRPPRLPRPRPRPNFLPRP | -0.153 |
| RRIRYRPPRLPRPRPRPMINPRP | -1.18 |
| RRIRSRPPRLPRPRPRPFKCPRP | -0.226 |
| RRIRLRPPRLPRPRPRPNMCPRP | 0.0102 |
| RRIRVRPPRLPRPRPRPEWGPRP | 2.29 |
| RRIRGRPPRLPRPRPRPNMEPRP | 0.22 |
| RRIRIRPPRLPRPRPRPQGEPRP | -0.0606 |
| RRIRQRPPRLPRPRPRPWLFPRP | 0.0523 |
| RRIRQRPPRLPRPRPRPQDIPRP | 0.0203 |
| RRIRWRPPRLPRPRPRPKHKPRP | 0.0536 |
| RRIRPRPPRLPRPRPRPWPLPRP | 0.185 |
| RRIRPRPPRLPRPRPRPQHLPRP | -0.172 |
| RRIRERPPRLPRPRPRPNQAPRP | -0.0316 |
| RRIRFRPPRLPRPRPRPGYRPRP | -0.0212 |
| RRIRFRPPRLPRPRPRPHHYPRP | -0.681 |
| RRIRNRPPRLPRPRPRPWMLPRP | -0.0937 |
| RRIRKRPPRLPRPRPRPACLPRP | 0.222 |
| RRIRKRPPRLPRPRPRPFDDPRP | -0.131 |
| RRIRMRPPRLPRPRPRPHAHPRP | -0.0269 |
